Source: US12466853B2, “Selective targeting of apoptosis proteins by structurally-stabilized and/or cysteine-reactive NOXA peptides” (priority 2017, dated 2025)
Residue numbers refer to the chain shown, from its start. “Also recorded” adds a separate entry of the source. Positions of bridges follow the written chain, without caps; N, C: chain ends. Non-standard residues stand in square brackets, D forms with d. No end group written: not given here. R8 = C=CCCCCCC[C@@](C)(N)C(=O)O; S5 = C=CCCC[C@](C)(N)C(=O)O

Tests used:
[1] = test system: ATM S1981 and CHK2 S33/35 phosphorylation in U937 cells; experiment: Phospho-signaling analysis (western blot); type: cell-based, human; details: 2 hr
Text: Cells were then washed with PBS, lysed in 1% CHAPS buffer, and the supernatant collected for protein concentration determination by BCA kit. Samples were subjected to electrophoresis and western analysis using 1:1000 dilutions of phospho-ATM (S1981, Cell Signaling, #4526), ATM (Abcam, #ab78), phospho-CHK2 (Ser33/35, Cell Signaling, #2665), CHK2 (Cell Signaling, #2662), and actin (Sigma #A1978) antibodies.

[2] = test system: BAX protein in U937 cells; experiment: Dynamic assessment of BAX protein levels (western blot); type: cell-based, human; details: 5 μM
Protocol: U937 cells were plated in 6-well plates (2×10^6 cells per well), treated with AZD0156 (5 μM), and the cells harvested and lysed at the indicated time points. Cell lysates were then subjected to electrophoresis and western blotting with BAX (Santa Cruz sc-493) and actin (Sigma #A1978) antibodies.

[3] = target: T1, His-BFL-1ΔC C4S/C19S (Homo sapiens, UniProt Q16548, C19S/C4S); experiment: In vitro covalent conjugation assay (gel shift, Coomassie; intact mass spectrometry); type: binding
T1 construct: Recombinant anti-apoptotic BFL-1ΔC (aa 1-151) and its cysteine to serine mutants were cloned into PET17b; made in house; host or cells: Escherichia coli LOBSTR BL21(DE3)
T1 sequence (Q16548 1-151 C4S/C19S): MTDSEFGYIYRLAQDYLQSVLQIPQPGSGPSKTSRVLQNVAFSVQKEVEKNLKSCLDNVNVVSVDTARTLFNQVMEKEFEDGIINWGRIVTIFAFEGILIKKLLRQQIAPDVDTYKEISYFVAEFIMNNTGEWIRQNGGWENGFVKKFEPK
Text: To generate constructs with particular binding selectivities, cell penetrance properties, in vivo stability, and biological activity to enable the development of a drug for clinical use, staple scanning methodology was first used to generate a library of cysteine-reactive NOXA SAHBs to optimize binding potency, selectivity, and cellular penetrance. […] Staple scanning was achieved by sequential placement of (i, i+4) and (i, i+7) staples across the length of the peptide template, while keeping the N-terminal D-nipecotic acid (D-NA) reactive group constant (FIG. 2). We measured the reactivity of this NOXA library by incubating each peptide with BFL-1ΔC and detecting a higher molecular weight conjugate upon reducing and denaturing gel electrophoresis, and Coomassie staining (FIG. 3). Those peptides capable of covalent reaction with BFL-1 were advanced to cellular testing for peptide uptake. 293T cells transfected with HA-BFL-1ΔC C4S/C19S were treated with peptide (20 μM, 6 hr), and then harvested and lysates analyzed by anti-HA western blotting (FIG. 4). […] However, upon LDH release testing in A375P cells, this peptide was unexpectedly found to cause membrane disruption (FIG. 5). […]

[4] = target: T2, native BFL-1 (Homo sapiens, UniProt Q16548); experiment: BFL-1 targeting in A375P lysates (streptavidin pulldown, BFL-1 western); type: binding; details: biotinylated SAHB, compared to acetylated construct
T2 construct: endogenous in cells; host or cells: A375P melanoma cells (A10); U937 AML cells (A12), lysates
T2 sequence (Q16548 1-175): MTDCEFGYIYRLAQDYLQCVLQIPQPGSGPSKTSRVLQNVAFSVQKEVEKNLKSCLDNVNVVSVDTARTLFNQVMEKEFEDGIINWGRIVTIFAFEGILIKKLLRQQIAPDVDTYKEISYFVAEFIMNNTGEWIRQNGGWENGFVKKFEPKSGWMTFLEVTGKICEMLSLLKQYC
Protocol: Cultured A375P and U937 cells were trypsinized or harvested, respectively, washed with PBS, and lysed by incubating with 1% CHAPS lysis buffer (1% CHAPS, 150 mM NaCl, 50 mM Tris pH 7.4, 100 μM DTT). The protein concentrations of the soluble fraction were measured using a BCA kit according to the manufacturer's instructions (Thermo Scientific). Lysate samples (1 mg) were incubated with vehicle or C-terminally biotinylated NOXA SAHBs (30 μM) overnight in 1% CHAPS lysis buffer at 4° C. Biotin capture was accomplished by incubating the mixture with high-capacity SA agarose (Thermo Scientific) for 2 hours at 4° C., followed by centrifugation and washing the pelleted beads three times with lysis buffer (1 mL). Bead-bound proteins were eluted by boiling in 10% SDS containing 10 mg/mL biotin for 10 minutes and then subjected to electrophoresis and western blotting using BFL-1 (Abcam, #125259) and MCL-1 (Rockland #600-401-394S) antibodies.

[5] = target: T3, GST-MCL-1ΔNΔC (Homo sapiens, UniProt Q07820); experiment: Streptavidin pulldown from recombinant protein mixture, MCL-1; type: binding; details: equimolar mixture of recombinant MCL-1, BCL-XL, BFL-1 and biotinylated SAHB, silver stain
T3 construct: BCL-XLΔC (aa 1-212) and MCL-1ΔNΔC (aa 172-329) were cloned into the PGEX-4T-1; made in house; host or cells: Escherichia coli BL21(DE3)
T3 sequence (Q07820 172-329, stated change not applied): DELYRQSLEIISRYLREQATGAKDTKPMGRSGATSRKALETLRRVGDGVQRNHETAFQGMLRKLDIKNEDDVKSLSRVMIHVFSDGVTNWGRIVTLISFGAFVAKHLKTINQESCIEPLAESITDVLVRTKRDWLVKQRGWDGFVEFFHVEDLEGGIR
Protocol: (§1) WT His-BFL-1ΔC, BCL-XLΔC (tagless), and GST-MCL-1ΔNΔC (1 μM each) were combined and incubated with 3 mM DTT in PBS for thirty minutes at room temperature. Mixtures were treated with vehicle or the indicated C-terminally biotinylated NOXA SAHB (1 μM) for four hours and were then added to 30 μL PBS-washed high-capacity streptavidin (SA) agarose beads (Thermo Fisher Pierce) and incubated with rotation at room temperature for two hours. The beads were then washed three times with NP-40 lysis buffer (1% NP-40, 50 mM Tris pH 8, 100 mM NaCl, 2.5 mM MgCl2) and three times with PBS. To elute bound protein, beads were boiled for ten minutes with 10% SDS containing 10 mg/mL biotin. After elution, samples were boiled with 3×LDS and 2M DTT for twenty minutes. Gel electrophoresis using a 12% Bis-Tris gel was conducted on inputs (2%) and eluates (5 μL) and gels were developed using the Pierce silver staining kit (Thermo Fisher).

[6] = test system: A375P cells; experiment: LDH release assay, A375P cells; type: cell-based, human; details: 30 min
Protocol: After overnight incubation for A375P cells, or immediately upon plating for U937 cells, the cells were treated with the indicated concentrations of D-NA-NOXA SAHBs in DMEM or RPMI supplemented with 5% FBS for the indicated time period (30 min, 4 h). After plate centrifugation at 1,500 rpm (Thermo Scientific Sorvall Four-Place Swinging Bucket Rotor [75006445]; 478×g) for 5 min at 4° C., LDH release was quantified by transferring 100 μL of cell-culture medium to a clear plate (Corning), incubating with 100 μL of LDH reagent (Roche) for 30 min while shaking, and then measuring absorbance at 490 nm on a microplate reader (Spectramax M5, Molecular Devices).

[7] = target: T4, His-BFL-1ΔC (Homo sapiens, UniProt Q16548); experiment: Streptavidin pulldown from recombinant protein mixture, BFL-1; type: binding; details: equimolar mixture of recombinant MCL-1, BCL-XL, BFL-1 and biotinylated SAHB, silver stain; listed as D-NA-NOXA SAHB
T4 construct: Recombinant anti-apoptotic BFL-1ΔC (aa 1-151) and its cysteine to serine mutants were cloned into PET17b; made in house; host or cells: Escherichia coli LOBSTR BL21(DE3)
T4 sequence (Q16548 1-151): T1 sequence (Q16548 1-151 C4S/C19S) with S4C, S19C
Protocol: as §1

Compound	ATM auto-phosphorylation at S1981 [1]	CHK2 phosphorylation at S33/35 [1]	protein level of pro-apoptotic BAX [2]	BFL-1 crosslinking (increase in molecular weight) ([3]; BFL-1 constructs bearing C55 (wild-type and C4S/C19S) vs C55S, C4S/C19S/C55S)	conversion of BFL-1 C4S/C19S to peptide adduct ([3]; intact mass spectrometry)	targeting of native BFL-1 [4]	MCL-1 binding / pull down [5]	LDH release (lytic activity) [6]	BFL-1 binding / pull down [7]
CN(C)CCCOc1ccc(-c2ccc3ncc4c(c3c2)n(C2CCOCC2)c(=O)n4C)cn1 [AZD0156]	dose-responsive inhibition of S1981 auto-phosphorylation	potent blockade of CHK2 phosphorylation even at the lowest treatment dose	time-dependent increase in the protein level of pro-apoptotic BAX						
*AT8LRRFGDXLNFRQ (AT[R8]LRRFGD[S5]LNFRQ; staple 3-10 (inferred); not fully specified (N-terminus); printed as *AT8LRRFGDXLNFRQ; also: N-terminal cap * is Ac or D-nipecotic acid, not settled) [NOXA-15]				discrete increase in molecular weight	complete conversion	markedly enhanced BFL-1 pull down compared to Ac-NOXA SAHB	similarly small amount of MCL-1	non-specific cell lysis	robust BFL-1 pull down; also recorded: substantial pull-down of BFL-1
